Assay results: article PMC3913652 (PLoS ONE, 2014)

Target: T1, [Leu^14]exenatide-ABD (leucine substituted for methionine at position 14 (stands in the printed …, C-terminus -OH (Table 1)))
T1 construct: numbers count on: the exenatide peptide; Gly-Gly-Ser tri-peptide linker; 88 residue peptide; also called ABD fused exenatide; source: synthetic peptide (solid phase, reverse-phase HPLC)
Assay: SPR; BioRad ProteOn XPR36, GLC sensor chip, 25°C; albumins amine-coupled (2000-5000 RU), peptides flowed over at 3 concentrations in duplicate; 10 mM HEPES pH 7.4, 150 mM NaCl, 3 mM EDTA, 0.005% Tween-20, 0.2 mg/ml ovalbumin; highest concentration dissociated for 3 hours; 1:1 (Langmuir) model with correction for mass transfer
Conditions: both partners purified

| Binder | Kd [nM] |
| --- | --- |
| dog albumin (natural protein, UniProt P49822 25-608, looked up) EAYKSEIAHRYNDLGEEHFRGLVLVAFSQYLQQCPFEDHVKLAKEVTEFAKACAAEESGANCDKSLHTLFGDKLCTVASLRDKYGDMADCCEKQEPDRNECFLAHKDDNPGFPPLVAPEPDALCAAFQDNEQLFLGKYLYEIARRHPYFYAPELLYYAQQYKGVFAECCQAADKAACLGPKIEALREKVLLSSAKERFKCASLQKFGDRAFKAWSVARLSQRFPKADFAEISKVVTDLTKVHKECCHGDLLECADDRADLAKYMCENQDSISTKLKECCDKPVLEKSQCLAEVERDELPGDLPSLAADFVEDKEVCKNYQEAKDVFLGTFLYEYARRHPEYSVSLLLRLAKEYEATLEKCCATDDPPTCYAKVLDEFKPLVDEPQNLVKTNCELFEKLGEYGFQNALLVRYTKKAPQVSTPTLVEVSRKLGKVGTKCCKKPESERMSCAEDFLSVVLNRLCVLHEKTPVSERVTKCCSESLVNRRPCFSGLEVDETYVPKEFNAETFTFHADLCTLPEAEKQVKKQTALVELLKHKPKATDEQLKTVMGDFGAFVEKCCAAENKEGCFSEEGPKLVAAAQAALV | 0.0981 |
| rat albumin (natural protein, UniProt P02770 25-608, looked up) EAHKSEIAHRFKDLGEQHFKGLVLIAFSQYLQKCPYEEHIKLVQEVTDFAKTCVADENAENCDKSIHTLFGDKLCAIPKLRDNYGELADCCAKQEPERNECFLQHKDDNPNLPPFQRPEAEAMCTSFQENPTSFLGHYLHEVARRHPYFYAPELLYYAEKYNEVLTQCCTESDKAACLTPKLDAVKEKALVAAVRQRMKCSSMQRFGERAFKAWAVARMSQRFPNAEFAEITKLATDVTKINKECCHGDLLECADDRAELAKYMCENQATISSKLQACCDKPVLQKSQCLAEIEHDNIPADLPSIAADFVEDKEVCKNYAEAKDVFLGTFLYEYSRRHPDYSVSLLLRLAKKYEATLEKCCAEGDPPACYGTVLAEFQPLVEEPKNLVKTNCELYEKLGEYGFQNAVLVRYTQKAPQVSTPTLVEAARNLGRVGTKCCTLPEAQRLPCVEDYLSAILNRLCVLHEKTPVSEKVTKCCSGSLVERRPCFSALTVDETYVPKEFKAETFTFHSDICTLPDKEKQIKKQTALAELVKHKPKATEDQLKTVMGDFAQFVDKCCKAADKDNCFATEGPNLVARSKEALA | 0.0082 |
| monkey albumin (natural protein, UniProt A2V9Z4 25-608, looked up) DTHKSEVAHRFKDLGEEHFKGLVLVAFSQYLQQCPFEEHVKLVNEVTEFAKTCVADESAENCDKSLHTLFGDKLCTVATLRETYGEMADCCAKQEPERNECFLQHKDDNPNLPPLVRPEVDVMCTAFHDNEATFLKKYLYEVARRHPYFYAPELLFFAARYKAAFAECCQAADKAACLLPKLDELRDEGKASSAKQRLKCASLQKFGDRAFKAWAVARLSQKFPKAEFAEVSKLVTDLTKVHTECCHGDLLECADDRADLAKYMCENQDSISSKLKECCDKPLLEKSHCLAEVENDEMPADLPSLAADYVESKDVCKNYAEAKDVFLGMFLYEYARRHPDYSVMLLLRLAKAYEATLEKCCAAADPHECYAKVFDEFQPLVEEPQNLVKQNCELFEQLGEYKFQNALLVRYTKKVPQVSTPTLVEVSRNLGKVGAKCCKLPEAKRMPCAEDYLSVVLNRLCVLHEKTPVSEKVTKCCTESLVNRRPCFSALELDEAYVPKAFNAETFTFHADMCTLSEKEKQVKKQTALVELVKHKPKATKEQLKGVMDNFAAFVEKCCKADDKEACFAEEGPKFVAASQAALA | 0.0402 |
